Reference: the nanobody polyreactivity screen of Harvey et al. (2022)

Assay: yeast display, Sf9 membrane polyspecificity reagent, FACS + sequencing; frameworks hold sequencing errors
Procedure, shortened: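 Polyreactivity labels are assigned by the sorting gate from which each nanobody was recovered. The gates were low and high (top ~1%), set on anti-HA fluorescence for expression and streptavidin fluorescence for reagent binding. Before sorting, galactose-induced (36–48 hours) yeast display cells were stained for 1 hour at 4 °C with 10% biotinylated, detergent-solubilized Sf9 membrane reagent.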

With “QVQLVESGGGLVQAGGSLRLSCAASGFILIQYAMGWYRQAPGKERELVAAITWSDTSTNYADSVKGRFTISRDNAKNTVYLQMNSLKPEDTAVYYCAAYPVRYYNQYDYWGQGTQVTVSS” as the sequence, how does the “polyreactivity (PSR sort gate)” value read?
The value was “low polyreactivity”.

Which “polyreactivity (PSR sort gate)” value does the source give for “QDQLVESGGGLVQAGGSLRLSCAASGRIFVPYSKGWYRQATGKERELVAAISLRGGTTYYSDSVKGRFTISRDNAKNTVYLQMNSLKPEDTAVYYCAARGYVSVWRPYHWFVAGDYWGQGTQVTVSS” here?
Its value is “high polyreactivity”.

Which “polyreactivity (PSR sort gate)” value does the source give for “QVQLVESGGGLVQAGGSLRLSCAASGSTFGYYGMGWYRQAPGKERELVASIDSRGDSTYADSVKGRFTISRDNAKNTVYLQMNSLKPEDTAVYYCAADSWYSWFDSWGQGTQVTVSS” here?
Its value is “low polyreactivity”.

For “QVQLVESGGGLVQAGGSLRLSCAASGFIFRYYAKGWYREAPGKERELVAAITSGGASTYYADSVKGRFRISRDNAKNTVYLQMNSLKPEDTPVYYCAADTSSYSEYDYWGQGTQVTVSS”, which “polyreactivity (PSR sort gate)” value is on record?
The value was “low polyreactivity”.

With “QVQLVDSGGGLVQAGGSLRESCAASGSTFYYNDMGWSRQAPGKDRELVAAIRTSGSTNYAESVKGRFTLSRDNAKNTVYLQMNSLKPEDTEVYYCNAVVRHWFPGWYGRGDDYWGQGTQVTVSS” as the sequence, how does the “polyreactivity (PSR sort gate)” value read?
Its value is “low polyreactivity”.

With “QVQLVETGGGLVQAGGSLRLSCAASGITSRPYVMGWYRQAPGKERELVAAISLTGGRTYYADSVKGRFTISRDNAKNTVYLQMNSPKPEDTAVYYCAAARSPYKYSYWGQGTQVTVSS” as the sequence, how does the “polyreactivity (PSR sort gate)” value read?
Its value is “high polyreactivity”.

Which “polyreactivity (PSR sort gate)” value does the source give for “QVQLVESGGGLVQAGGSLRLSCAASGFTICTYAMGWYRQAPGKERELVAAIDSGGSTYYADSVMGRFTISRDNAKTTVYLQMNSLKPEDTAVYYCNAGPSVTSGYDYDYWGQGTQVTVSS” here?
Its value is “low polyreactivity”.

With “QVQLVESGGGLVQAGGSLRLSCAASGLTLTYYAMGWYRQAPGKERELVAAISSSGGSTYYADSVKGRFTISRDNAKNTVYLQMNSLKPEDAAVYYCAATRVSWTGRDDYWGQGTQVTVSS” as the sequence, how does the “polyreactivity (PSR sort gate)” value read?
Its value is “high polyreactivity”.

With “QVQLVESGGGLVQAGGSLRLSCAASGIIFEGNAMGWYRQAPGKERELVAAISTSTGRTYYADSVKGRFTISRDNAKNTVYLQMNSLKPEDTAVYYCAAYIRTTRFDYWGQGTQVTVSS” as the sequence, how does the “polyreactivity (PSR sort gate)” value read?
The value was “high polyreactivity”.

With “QVQHVESGGGLVQAGGSLRLSCAASGRTFALNAMGWYRQAPGKERELVAAISWSSGRTYYADSVKGRFTISRDNAKNTVYLQMNSLKPEDTAVYYCAALVAHKGDYWGQGTQVTVSS” as the sequence, how does the “polyreactivity (PSR sort gate)” value read?
Its value is “high polyreactivity”.

With “QVQRVESAAGLVQAGGSLRLSCAASGSIFWFNSMGWSRPEPGKERELVATIRYSGCSTYYADSVKGRFTISRDNAKKTVYLLMNSLKPDDTAVYYSAAVYRYSRSGYEYWGQGTQVTVSS” as the sequence, how does the “polyreactivity (PSR sort gate)” value read?
Its value is “high polyreactivity”.

Which “polyreactivity (PSR sort gate)” value does the source give for “QVQLVESGGGLVQAGGSLRLSCAASVTIFGDYTMGWYRQAPGKERELVAAITWSAGRTYYADSVKGRFTISRDNAKNTVYLQMNSLKPEDTAVYYCAAQVPEDTETVDYWGQGTQVTVSS” here?
Its value is “low polyreactivity”.

For “QVQLVESGGGLVQAGGSLRLICAASGSTFLGYAMGWYRQAPGKERELVAAITYSAGSTYYADSVKGRFTISRDNAKNTVYLQMNSLKPEDTAVYYCAKRYSGYDHWGQGTQVTVSS”, which “polyreactivity (PSR sort gate)” value is on record?
The value was “low polyreactivity”.

For “QVQLVESGGGLVQAGGSLRLSCAASGRTLTRYTMGWYRQAPGKERELVATISRSGGNTHYADSVKGRFTISRDNAKNTVYLQMNSLKPEDTAVYYCNAVRYALYGYDYWGQGTQVTVSS”, which “polyreactivity (PSR sort gate)” value is on record?
The value was “high polyreactivity”.

With “QVQLVESGGGLVQAGGSLRLSCAASGRTFFINAMGWYRQAPGKERELVAAMRVGAGSTYYADSVKGRFTISRDNAKNTVYLQMNSLKPEDTAVYYCSKRTATSTRKYDYWGQGTQVTVSS” as the sequence, how does the “polyreactivity (PSR sort gate)” value read?
The value was “high polyreactivity”.

For “QVQLVESGGGLVQAGGSLRLSCAASGRIFARNAMGWSRQAPGKERELVAASSSGGGSTYYADSVKGRFTISRDNAKNTVYLRMISLKPEDTAVYYCAARTRITYDWGQGTQVTVSS”, which “polyreactivity (PSR sort gate)” value is on record?
Its value is “low polyreactivity”.

For “QVQLVESGGGLVQAGGSLRLSCAASGRIFNWYAMGWYRQAPGKERELVARISSGDITSYADSVKGRFTISRDNAKNTVYLQMNRLKPEDTAVYYCDARQWFLYDYWGQGTQVTVSS”, which “polyreactivity (PSR sort gate)” value is on record?
The value was “low polyreactivity”.

For “QVQIVESGGALVQAGGGHRLSCAASGRTFTYNAMGWYRQAPGKERELVAAITSGGSTNYADSVKGRFTISRDNAKNTVYLQMNSLKPEDTAVYYCAARRVYYSYRRYYYWGQGTQVTVSS”, which “polyreactivity (PSR sort gate)” value is on record?
The value was “low polyreactivity”.

Which “polyreactivity (PSR sort gate)” value does the source give for “QVQLVESGGGLVQAGGSLRLSCAASGSIFVPNAMGWYRQAPGKERELVAAITSGGSTYYADSVKGRFTISRDNAKNTVYLQMNSLKPEDTAVYYCAAEYWLGLYTYDYWGQGTQVTVSS” here?
The value was “high polyreactivity”.

With “QVQLVESGGGLVQAGGSLRLSSAASGRTFYLYAMGWYRQAPGKAMELVAAISRSGGITYYADSVKGRFTISRDNAKNTVYLQMNSLKPEDTGVYYCAASRAGGYYGKGYSWGQGSQVTVSS” as the sequence, how does the “polyreactivity (PSR sort gate)” value read?
Its value is “high polyreactivity”.

For “QVQLVESGGGLVQAGGSLRLSCAASGFNFRWYAMGWYRQAPGKESEFVAAITWRGGRTYYADSVKGRFTISRDNAKNTVYLQMNSLKPEDTAVYYCNAVYQYWHYSEGNYWGQGTQVTVSS”, which “polyreactivity (PSR sort gate)” value is on record?
The value was “low polyreactivity”.

With “QVQLVESGGGLVQAGGSLRLSCAASGNIRNYGLGWYRQAPGKERELVAAITVSGSRTYYADSVKGRFTISRDNAKNTVYLQMNSLKPEDTAVSYCAARGYNTLTRYDYWGQGTQVTVTS” as the sequence, how does the “polyreactivity (PSR sort gate)” value read?
The value was “high polyreactivity”.

Which “polyreactivity (PSR sort gate)” value does the source give for “QVQLVESGGGLVQAGGSLRLSCAASGRTFSKYTMGWYRQEPGKESELVAVISRSGTRTYYADSVKGRFTISRDNANNTVYLQMNSMKPEDTAVYYCAAKDERRSFGMGYWGQGTQVTVTS” here?
The value was “high polyreactivity”.

Which “polyreactivity (PSR sort gate)” value does the source give for “QDQLVESCGALLQAGGSLRLSCAASGITIDTYFMGRYRQAPGKETELLAAISNSDGSTYYADSVKGRFTISRDNAKHTVYLPMNSLKPEDTAVYYCNAQSYYSWHLRYDYWGQGTQVTVSS” here?
Its value is “high polyreactivity”.

With “QVQLEESGGGLVQAGGSLRLSCAASGRIFAYYAMGWYRQAPGKERELVAAIRGSGGSTYYADSVKGRFTISRDNAKNTVYLQMNSLKPEDTAVYYCAARTQPKKFYYWGQGTQVTVSS” as the sequence, how does the “polyreactivity (PSR sort gate)” value read?
Its value is “high polyreactivity”.

For “QVQLVESGGGLVQAGGSLRLSWAASGLIFVYNDMGWYRQAPGKEMELVAAIRWSSGRTYYADSVKGRFTISRDNAKNTVYLQMNSLKPEDTAVYYCAAKGVGPERGGYDYWGQGTQVTVSS”, which “polyreactivity (PSR sort gate)” value is on record?
The value was “high polyreactivity”.

For “QVQLVESGGGLVQAGGSLSLSCAASGLTFSAYAMGWYRQAPGKERELVAAISSGVSTNYADSVKGRFTISRDNAKNSVYLQMNSLKPEDTAVYYCKAEYWGAYEYWGQGTQVTVSS”, which “polyreactivity (PSR sort gate)” value is on record?
The value was “high polyreactivity”.

With “QVQLVESGGGLVQAGGSLRLSCAASGIIFTRYVMGWYRQAPGKQRELVAVISRRGGTTYYADSVKGRFTISRDNAKNTVYLQMNSLKPEVTAVYYCNTDGYRYPGSGINYYYWGQGTQVTVSS” as the sequence, how does the “polyreactivity (PSR sort gate)” value read?
Its value is “high polyreactivity”.

With “QVQLVESGGGLVQAGGSLRLSCAASISSINAMGWYRQAPGKERELVAAIRWSGSSTYYADSVKGRFTISRDNAKNTVYLQMNSLKPEDTAVYYCAARYVRVGYDYWGQGTQVTVSS” as the sequence, how does the “polyreactivity (PSR sort gate)” value read?
Its value is “high polyreactivity”.

For “QVQLVESGAGLVQAGGSLRLSCAASGSIFYDYAMGVYRQAPGKERELVAAISSSGITYYADSVKGRFTISRDNAKNTVYLQMNSLKPVDTAVYYCNARSYLRDYYYWGQGTQVTVSS”, which “polyreactivity (PSR sort gate)” value is on record?
Its value is “high polyreactivity”.

With “QVQLVESGGGLVQAGGSLRLSCAASGIFVSYAMGWYRQAPGKDRAVVAAISSSGGSTYYADSVKGRFTISRDNAKNTVYLQMNSLKPEDTAVYYGAARLVKSQTTVQGYYWGQGTQVTVSS” as the sequence, how does the “polyreactivity (PSR sort gate)” value read?
Its value is “high polyreactivity”.

For “QVHLVESGRGLVQAGGSLRLSCAASGRTLYRYAMGWYRQAPGKERELVAAINQSGGRTYYADSVKGRFTISRDNAKNTVYFQMNSLKPEDTAVYYCAASPVRVGKVIDGRDYWGQGTQVTVSS”, which “polyreactivity (PSR sort gate)” value is on record?
Its value is “high polyreactivity”.

For “QVQLVESGGGLVQAGGSLRLSCAASGRIFKWNAMGWYRQAPGKERELVAAITYRDDTTYYADSVKGRFTISRDNAKNTVYLQMNSLKPEDTAVYYCNAAWRPCRPFRGFTEGEYDYWGQGTQVTVSS”, which “polyreactivity (PSR sort gate)” value is on record?
Its value is “low polyreactivity”.

With “QVQLVESGGGLVQAGGSLRLSCAASGSTFRGYAMGWYRKATGKERELVATNSGSDGTTYYADSVKGRFTISRENAKNTVYLQMNSLKPEDTAVYYCAAGETFEMYYWGQGTQVTVSS” as the sequence, how does the “polyreactivity (PSR sort gate)” value read?
Its value is “low polyreactivity”.

With “QVQLVESGGGLVQAGGSLRLSCAASGFIFPIYAMGWYRQAPGKERELVAAITSNGASTYYADSVKGRFTISRDNAKNTVYLQMNSLKPEDTAVYYCARDPSIRALEHDYWGQGTKVTVSS” as the sequence, how does the “polyreactivity (PSR sort gate)” value read?
The value was “high polyreactivity”.

With “QVQLVESGGGLVQAGGSLRLSCAASGFTIWRYAMGWYRQEPGKERELVAAISRGGSTNYADSVKGRFTISRDNAKNTVYLQMNSLKPEDTAVYYCAASVLYRRLKKFYYWGQGTQVTVSS” as the sequence, how does the “polyreactivity (PSR sort gate)” value read?
Its value is “high polyreactivity”.

Which “polyreactivity (PSR sort gate)” value does the source give for “QVQLVESGGGLVQAGGSLRLSCAASGSIFPDYTMGWYRQAPGKERELVAAITRSGDSTYYADSVKGRFTISRDNAKNTVYLQMNSLKPEDTAVYYCARDAFSVSDFSYASIEYDYWGQGTQVTVSS” here?
Its value is “low polyreactivity”.

With “QVQLVESGGGLVQAGGSLRLSCAASGLTISWNAMGWYRQAPGKERELVAAISSRGGSTYYADSVKGRFKISRDNAKNTVYLQMNSLKPEDTAVYYCAAEGYTYYPVYSTRMYYWGQGTQVTVSS” as the sequence, how does the “polyreactivity (PSR sort gate)” value read?
The value was “low polyreactivity”.

With “QVQIVESGGGLVQAGGSLPLSCAASGFIYNYNAMGWYRQAPRKERELVAAISTSGSSTYYADSVKGRFTISRDTPKNTVYLQMNSLKPEVTAVYYCARYRVARGEGGWLYDYWGQGTQVTVSS” as the sequence, how does the “polyreactivity (PSR sort gate)” value read?
Its value is “high polyreactivity”.

Which “polyreactivity (PSR sort gate)” value does the source give for “QVQLVESGGGLVQAGGSLRLSCAASGLTFYGNAMGWYRQAPGKERELVAAITSNGGSTYYADSVKGRFTISRDNAKNTVYLQMISLKPEDTAVYYCNVDTGYDYWYPGYGYWGQGTQVTVSS” here?
Its value is “low polyreactivity”.

Which “polyreactivity (PSR sort gate)” value does the source give for “QVQLVESGGGLVQAGGSLRLSCAASGSIFRTYAMGWYRQAHGKETELVAAITRSGGTTYYADSVKGRFTISRDNAKNTVYLQMNSLKPEDTAVYFCNAQGYWYKGRRRGDYWGQGTQVTVSS” here?
The value was “high polyreactivity”.
